According to FireProtDB (doi:10.1021/bi5005975):
Where a chain is given by its changes, count along the chain named. Several values for one entry are separate records, joined by “and”; a condition that tells them apart may be missing. Equal entries are not always repeated.

B1: wild type, Q9NAV7 (protein)
chain: MGFKQDIATLRGDLRTYAQDIFLAFLNKYPDEKRNFKNYVGKSDQELKSMAKFGDHTEKVFNLMMEVADRATDCVPLASDASTLVQMKQHSGLTTGNFEKLFVALVEYMRASGQSFDSQSWDRFGKNLVSALSSAGMK
B2: wild type, Q9NAV8 (protein)
chain: B1 chain with L10I, K33R, N35Y, S82N, G92S

Details: Amphitrite ornata; pH 7; 20 °C; GdnHCl; UV?visible spectrophotometer; potassium phosphate 100 mM; transition: 2; reversible: yes; whole UniProt chain shown

Protein | denaturant midpoint (higher = more stable) | unfolding free energy
B1 | 1.09 M | 2.21 kcal/mol

Same assay, conditions: Amphitrite ornata; pH 7; 20 °C; Urea; UV?visible spectrophotometer; potassium phosphate 100 mM; transition: 2; reversible: yes; whole UniProt chain shown

Protein | denaturant midpoint (higher = more stable) | unfolding free energy
B1 | 4.12 M | 2.42 kcal/mol

Same assay, conditions: Amphitrite ornata; pH 7; Thermal; DSC; degassed buffer (potassium phosphate) 100 mM; transition: 2; reversible: yes; whole UniProt chain shown

Protein | Tm | unfolding enthalpy (calorimetric) | unfolding enthalpy (van 't Hoff)
B1 | 47.7 °C and 48.6 °C | 165 kcal/mol and 166 kcal/mol | 336 kcal/mol and 396 kcal/mol
B2 | 50.5 °C and 49.8 °C | 183 kcal/mol and 163 kcal/mol | 384 kcal/mol and 412 kcal/mol

Same assay, conditions: Amphitrite ornata; pH 7; Thermal; UV?visible spectrophotometer; potassium phosphate 100 mM; transition: 2; reversible: yes; whole UniProt chain shown

Protein | Tm
B1 | 46 °C
